Reference: patent US20150072933A1, “NOVEL SEQUENCES FOR THE CONTROL OF REPRODUCTION IN FISH” (Yissum Research Development Company of the Hebrew …, priority 2011, published 2015)
Where no end group is shown, it is not given here.

T1: zebrafish Tac3ra (tac3 receptor a, NKB receptor) (zebrafish)
T1 chain: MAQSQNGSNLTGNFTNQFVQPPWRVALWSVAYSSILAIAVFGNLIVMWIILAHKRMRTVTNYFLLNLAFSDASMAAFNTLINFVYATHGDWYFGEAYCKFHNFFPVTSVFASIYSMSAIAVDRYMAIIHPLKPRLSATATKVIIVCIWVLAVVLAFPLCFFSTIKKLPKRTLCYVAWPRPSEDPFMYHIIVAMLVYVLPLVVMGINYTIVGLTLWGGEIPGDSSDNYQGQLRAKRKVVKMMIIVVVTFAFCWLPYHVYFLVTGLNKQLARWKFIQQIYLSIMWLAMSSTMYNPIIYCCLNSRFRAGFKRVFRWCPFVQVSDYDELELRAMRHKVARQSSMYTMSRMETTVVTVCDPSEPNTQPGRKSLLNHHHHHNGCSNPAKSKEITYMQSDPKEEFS

T2: human NK3R (human NKB receptor) (human, UniProt P29371 1-465)
T2 sequence (looked up): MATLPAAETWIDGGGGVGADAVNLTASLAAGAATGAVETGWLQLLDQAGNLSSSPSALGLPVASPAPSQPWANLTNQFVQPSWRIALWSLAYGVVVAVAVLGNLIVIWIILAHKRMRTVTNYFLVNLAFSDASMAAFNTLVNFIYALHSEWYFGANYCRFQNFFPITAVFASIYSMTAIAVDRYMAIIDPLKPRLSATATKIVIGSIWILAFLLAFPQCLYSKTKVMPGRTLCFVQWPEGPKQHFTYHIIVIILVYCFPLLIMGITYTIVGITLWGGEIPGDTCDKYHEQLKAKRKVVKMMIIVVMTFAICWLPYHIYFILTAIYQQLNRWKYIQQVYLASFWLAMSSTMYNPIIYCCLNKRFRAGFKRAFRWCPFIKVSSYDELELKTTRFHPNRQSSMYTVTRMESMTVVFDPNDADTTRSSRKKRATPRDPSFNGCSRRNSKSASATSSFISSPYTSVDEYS

T3: zebrafish Tac3rb (tac3 receptor b, NKB receptor) (zebrafish)
T3 chain: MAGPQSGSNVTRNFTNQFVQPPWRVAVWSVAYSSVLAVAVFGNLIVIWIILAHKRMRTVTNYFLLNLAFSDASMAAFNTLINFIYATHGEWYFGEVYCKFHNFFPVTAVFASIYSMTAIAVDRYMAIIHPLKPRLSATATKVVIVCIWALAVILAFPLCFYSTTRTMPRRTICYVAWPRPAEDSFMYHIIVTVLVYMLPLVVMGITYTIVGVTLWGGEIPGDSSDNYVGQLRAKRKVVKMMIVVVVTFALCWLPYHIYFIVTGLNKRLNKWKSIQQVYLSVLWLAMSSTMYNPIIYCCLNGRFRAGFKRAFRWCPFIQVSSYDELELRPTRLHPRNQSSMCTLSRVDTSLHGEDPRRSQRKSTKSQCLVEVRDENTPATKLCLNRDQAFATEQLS


What was measured:
Assay in all cases: cell-based or functional assay
[1] = biological target: T1, zebrafish Tac3ra (tac3 receptor a, NKB …)
[2] = biological target: T2, human NK3R (human NKB receptor)
[3] = biological target: T3, zebrafish Tac3rb (tac3 receptor b, NKB …)
[4] = biological target: T1, zebrafish Tac3ra (tac3 receptor a, NKB …)
[5] = biological target: T2, human NK3R (human NKB receptor); remark: listed apart in the source
[6] = biological target: T3, zebrafish Tac3rb (tac3 receptor b, NKB …)
[7] = biological target: T1, zebrafish Tac3ra (tac3 receptor a, NKB …)
[8] = biological target: T2, human NK3R (human NKB receptor); remark: listed apart in the source
[9] = biological target: T3, zebrafish Tac3rb (tac3 receptor b, NKB …)

Binder | EC50, SRE reporter gene that follows PKC activation, transfected COS-7 cells [1] | EC50, SRE reporter gene that follows PKC activation, transfected COS-7 cells [2] | EC50, SRE reporter gene that follows PKC activation, transfected COS-7 cells [3] | EC50, CRE-Luc reporter (PKA activation), transfected COS-7 cells [4] | EC50, SRE-Luc reporter (PKC activation), transfected COS-7 cells [4] | EC50, CRE-Luc reporter (PKA activation), transfected COS-7 cells [5] | EC50, SRE-Luc reporter (PKC activation), transfected COS-7 cells [5] | EC50, CRE-Luc reporter (PKA activation), transfected COS-7 cells [6] | EC50, SRE-Luc reporter (PKC activation), transfected COS-7 cells [6] | EC50, CRE-Luc to follow PKA activation, transfected COS-7 cells [7] | EC50, CRE-Luc to follow PKA activation, transfected COS-7 cells [8] | EC50, CRE-Luc to follow PKA activation, transfected COS-7 cells [9]
STGINREAHLPFRPNMNDIFVGLL-NH2 [Zebrafish Tac3b peptide, neurokinin Bb (STGINREAHLPFRPNMNDIFVGLL-NH2)] | 6.06 nM | 204 nM | 15.3 nM | 237 nM | 8.96 nM | 605 nM | 204 nM | 519 nM | 33.8 nM | 99.6 nM | 336 nM | 191 nM
YNDIDYDSFVGLM-NH2 [Zebrafish Tac3f peptide, neurokinin F (YNDIDYDSFVGLM-NH2)] | 0.55 nM | 0.52 nM | 0.37 nM | 4.94 nM | 0.54 nM | 4.36 nM | 0.52 nM | 1.8 nM | 0.36 nM | 4.94 nM | 4.36 nM | 1.8 nM
